The record followed here is PMC2760398.

The target of test [1] is FKBP12-TEVct (118/119 sTEVp, C-terminal TEVp fragment fused to FKBP12) (not stated | tobacco etch virus). The note with it: scale: % of the median FRET efficiency of control cells.
For test [2] the target is unchanged. The following applies: scale: % of the median FRET efficiency of control cells. The source holds these as a separate data set.
Test [3] concerns the target Lyn11-FKBP12-sTEVp-CT (membrane-targeted FKBP12-TEVct of pBud-mem-sTEVp) (not stated | tobacco etch virus). The note with it: scale: % of the median FRET efficiency of control cells.
Test [4] has as its target C34V-FKBP12-TEVct (not stated | tobacco etch virus). The following applies: scale: % of the median FRET efficiency of control cells.
The target in test [5] is Lyn11-FKBP12-sTEVp-CT (membrane-targeted FKBP12-TEVct of pBud-mem-sTEVp) (not stated | tobacco etch virus).
For test [6], the target named is FKBP12-TEVct (118/119 sTEVp, C-terminal TEVp fragment fused to FKBP12) (not stated | tobacco etch virus). The following applies: scale: % of the median FRET efficiency of control cells. The source holds these as a separate data set.
Test [7] has as its target Lyn11-FKBP12-sTEVp-CT (membrane-targeted FKBP12-TEVct of pBud-mem-sTEVp) (not stated | tobacco etch virus). The note with it: scale: % of the median FRET efficiency of control cells. The source holds these as a separate data set.
In test [8] the target is FKBP12-TEVct (118/119 sTEVp, C-terminal TEVp fragment fused to FKBP12) (not stated | tobacco etch virus). The note with it: scale: % of the median FRET efficiency of control cells. The source holds these as a separate data set.

Regarding “FRB-TEVnt (118/119 sTEVp, N-terminal TEVp fragment fused to FRB) (from UniProt P42346 2018-2114)”, in test [1], the background TEVp activity: median FRET efficiency of membrane-targeted mem-C34V (100 ng) in HeLa cells, 300-1000 ng pBud-sol-sTEVp, without rapamycin (98% at 300 ng, 89% at 1000 ng) was found to be 98 and the inducible TEVp activity: median FRET efficiency of membrane-targeted mem-C34V (100 ng) in HeLa cells, 300-1000 ng pBud-sol-sTEVp, rapamycin (7% at 300 ng, 3% at 1000 ng) was 7. In test [2], this substance registered a TEVp activity by fragment complementation: median FRET efficiency of the substrate C34V in HeLa cells, 450 ng of each 118/119 sTEVp plasmid, 100 nM rapamycin for 3 hours at 37°C of 3 and a background TEVp activity: median FRET efficiency of the substrate C34V in HeLa cells, 450 ng of each 118/119 sTEVp plasmid, without rapamycin of 83. In test [3], this substance came in with a background TEVp activity: median FRET efficiency of soluble C34V (100 ng) in HeLa cells, 300-1000 ng pBud-mem-sTEVp, without rapamycin (no significant difference from control) of 100 and an inducible TEVp activity: median FRET efficiency of soluble C34V (100 ng) in HeLa cells, 300-1000 ng pBud-mem-sTEVp, rapamycin (30% at 300 ng, 12% at 1000 ng) of 30. Further, in test [4], the background TEVp activity in cis: median FRET efficiency of C34V-FKBP12-TEVct (300 ng) in HeLa cells with 25 ng FRB-TEVnt, without rapamycin (significant decrease at 25 ng FRB-TEVnt and above) stood at 84; the inducible TEVp activity in cis: median FRET efficiency of C34V-FKBP12-TEVct (300 ng) in HeLa cells with 25 ng FRB-TEVnt, rapamycin for 3 hours (significant reduction also at 12 and 100 ng FRB-TEVnt) turned out to be 0. In addition, the inducible TEVp activity: median degree of current inactivation 1-(I95ms/Imax) of EGFP-KV3.4 (1 µg RNA) in HEK-293 cells, 1-3 µg pBud-mem-sTEVp, rapamycin (0.31 at 1 µg, 0.53 at 3 µg) in test [5] worked out at 0.53. Also, in test [6], the background TEVp activity: median FRET efficiency of soluble C34V (100 ng) in HeLa cells, 300-1000 ng pBud-sol-sTEVp, without rapamycin (97% at 300 ng, 84% at 1000 ng) was 97 and the inducible TEVp activity: median FRET efficiency of soluble C34V (100 ng) in HeLa cells, 300-1000 ng pBud-sol-sTEVp, 100 nM rapamycin for 3 hours (9% at 300 ng, 3% at 1000 ng) is 9. In test [7], this substance showed a background TEVp activity: median FRET efficiency of membrane-targeted mem-C34V in HeLa cells, 300-1000 ng pBud-mem-sTEVp, without rapamycin (56% at 300 ng, 46% at 1000 ng) of 56 and an inducible TEVp activity: median FRET efficiency of membrane-targeted mem-C34V in HeLa cells, 300-1000 ng pBud-mem-sTEVp, rapamycin for 3 hours below 4. In test [8], this substance had a TEVp activity by fragment complementation: median FRET efficiency of the substrate C34V in HeLa cells, 125 ng sTEVp, rapamycin for 3 hours of 3 and a background TEVp activity: median FRET efficiency of the substrate C34V in HeLa cells, 125 ng sTEVp (optimum of a titration of the plasmid mass from 40 ng upwards), without rapamycin of 96.
